Data taken from patent US20180030151A1 (MOGAM INSTITUTE FOR BIOMEDICAL RESEARCH, published 2018).

How the values were obtained:
[1] = biological target: T1, recombinant human TFPI (tissue factor pathway inhibitor) (human, UniProt P10646 29-304); assay: yeast-display scFv, FACS with biotinylated TFPI
T1 construct: Biotin-conjugated in the yeast FACS; also called hTFPI; TFPI antigen
Protocol: The finally amplified single colonies were collected from the yeast display library, and then cultured in SD medium at 30° C. at 200 rpm for 12 hours. Then, the medium was replaced with SG medium, and the cells were cultured at 25° C. at 200 rpm for 12 hours or more, thereby expressing the antibody on the yeast surface. Next, the yeast cells recovered by centrifugation were washed with PBSF (1% BSA containing PBS) buffer, resuspended in 50 μl of PBSF buffer, and then incubated with a biotin-conjugated recombinant human TFPI protein and anti-c-myc mouse antibody (CAT. No. M4439, Sigma) at room temperature for 30 minutes. The incubated yeast cells were washed with PBSF, resuspended in 50 μl of PBSF buffer, and then incubated with FITC-conjugated anti-mouse antibody (CAT. No. F0257, Sigma) and PE-conjugated streptavidin on ice under a light-shielded condition for 15 minutes. Next, the cells were washed with PBSF buffer, resuspended in 500 μl of PBSF buffer, and then clones showing high values in the FITC and PE wavelength ranges were selected by FACS, thereby obtaining individual clones.

[2] = biological target: T1, recombinant human TFPI (tissue factor …); assay: cell-based or functional assay
[3] = biological target: T1, recombinant human TFPI (tissue factor …); assay: SPR, Biacore T-200; TFPI immobilised on CM5 chip, IgG as analyte
Protocol: 10 mM of glycine-HCl (pH 1.5) was run at a flow rate of 30 μL/min for 30 seconds, thereby inducing the dissociation of the antibody associated with the TFPI. The affinity in terms of kinetic rate constants (Kₒₙ and Koff) and equilibrium dissociation constant

[4] = biological target: T1, recombinant human TFPI (tissue factor …); assay: cell-based or functional assay; remark: listed apart in the source

B1: clone 1232 (antibody, V domains shown)
VH: EVQLVESGGGLVKPGGSLRLSCAASGFTFSSYAMNWVRQAPGKGLEWVSTITTGGSYTYYADSVDGRFTISRDNAKNSLYLQMNSLRAEDTAVYYCARQDGHFLMDYWGQGTLVTVSS
VL: DVVMTQTPLSLPVTLGQPASISCKSSQSLLDVDGKTYLNWLQQRPGQSPKRLIYLVSKLDSGVPDRFTGSGSGTDFTLKISRVEAEDVGVYYCWQGTHFPFTFGQGTKVEIKR
notes: scFv on yeast at selection; human IgG4/kappa IgG as purified
binding result [1]: binds

B2: clone 4011 (antibody, V domains shown)
VH: EVQLVESGGGLVKPGGSLRLSCAASGFTFYSYAMNWVRQAPGKGLEWVSTITTGGSHTYYADSVEGRFTISRDNAKNSLYLQMNSLRAEDTAVYYCARQDGNFLMDYWGQGTLVTVSS
VL: DVVMTQTPLSLPVTLGQPASISCKSSQSLLDVDGKTYLNWLQQRPGQSPKRLIYLVSKLDSGVPDRFTGSGSGTDFTLKISRVEAEDVGVYYCWQGTHLPFTFGQGTKVEIKR
notes: as for B1
binding result [1]: binds

B3: clone 23 (antibody, V domains shown)
VH: EVQLVESGGGLVKPGGSLRLSCAASGFTFSHYAMNWVRQAPGKGLEWVSTITTGGSYTYYADSVEGRFTISRDNAKNSLYLQMNSLRAEDTAVYYCARQDGHFLMDYWGQGTLVTVSS
VL: DVVMTQTPLSLPVTLGQPASISCKSSPSLLDIDGKTYLNWLQQRPGQSPKRLIYLVSKLDSGVPDRFTGSGSGTDFTLKISRVEAEDVGVYYCWQGTHLPFTFGQGTKVEIKR
FXa assay % of FXa alone, 2.5 nM Ab, 10 nM TFPI [2]: 6.9% | FXa assay % of FXa alone, 5 nM Ab, 10 nM TFPI [2]: 7.4% | FXa assay % of FXa alone, 10 nM Ab, 10 nM TFPI [2]: 10.4% | FXa assay % of FXa alone, 20 nM Ab, 10 nM TFPI [2]: 62.5% | FXa assay OD, 2.5 nM Ab, 10 nM TFPI [2]: 0.082 | FXa assay OD, 10 nM Ab, 10 nM TFPI [2]: 0.124 | FXa assay OD, 20 nM Ab, 10 nM TFPI [2]: 0.745

B4: clone 4041 (antibody, V domains shown)
VH: EVQLVESGGGLVKPGGSLRLSCAASGFTFSSYAMSWVRQAPGKGLEWVSTITTGGSHTYYADSVEGRFTISRDNAKNSLYLQMNSLRAEDTAVYYCARQDGYFLMDYWGQGTLVTVSS
VL: DVVMTQTPLSLPVTLGQPASISCKSSQSLLDVDGKTYLNWLQQRPGQSPKRLIYLVSKLDSGVPDRFTGSGSGTDFTLKISRVEAEDVGVYYCWQGTHFPFTFGQGTKVEIKR
notes: as for B1
binding result [1]: binds

B5: clone 1223 (antibody, V domains shown)
VH: EVQLVESGGGLVKPGGSLRLSCAASGFTFSSYAMNWVRQAPGKGLEWVSTITTGGSYTYYADSVEGRFTISRDNAKNSLYLQMNSLRAEDTAVYYCARQDGHFLMDYWGQGTLVTVSS
VL: DVVMTQTPLSLPVTLGQPASISCKSSQSLLDIDGKTYLNWLQQRPGQSPKRLIYLVSKLDSGVPDRFTGSGSGTDFTLKISRVEAEDVGVYYCWQGTHFPFTFGQGTKVEIKR
notes: as for B1
binding result [1]: binds

B6: clone 1243 (antibody, V domains shown)
VH: EVQLVESGGGLVKPGGSLRLSCAASGFTFSSYAMNWVRQAPGKGLEWVSTITTGGSHTYYADSVHGRFTISRDNAKNSLYLQMNSLRAEDTAVYYCARQDGHFLMDYWGQGTLVTVSS
VL: DVVMTQTPLSLPVTLGQPASISCKSSQSLLDIDGKTYLNWLQQRPGQSPKRLIYLVSKLDSGVPDRFTGSGSGTDFTLKISRVEAEDVGVYYCWQGTHFPFTFGQGTKVEIKR
notes: as for B1
binding result [1]: binds

B7: clone 1208 (antibody, V domains shown)
VH: EVQLVESGGGLVKPGGSLRLSCAASGFTFSSYAMNWVRQAPGKGLEWVSTITTGGSHTYYADSVEGRFTISRDNAKNSLYLQMNSLRAEDTAVYYCARQDGHFLMDYWGQGTLVTVSS
VL: DVVMTQTPLSLPVTLGQPASISCKSSQSLLDVDGKTYLNWLQQRPGQSPKRLIYLVSKLDSGVPDRFTGSGSGTDFTLKISRVEAEDVGVYYCWQGTYLPFTFGQGTKVEIKR
notes: as for B1
binding result [1]: binds

B8: clone T308 (antibody, human IgG4, V domains shown)
VH: EVKLVESGGGLVKPGGSLKLSCAASGFTFSNYPMSWVRQTPEKRLEWVATISNSGSYTYYPDSVKGRFTISRDNAKNTLYLQMNSLRSEDTAMYYCARQVYGNYEDFDYWGQGTTLTVSS
VL: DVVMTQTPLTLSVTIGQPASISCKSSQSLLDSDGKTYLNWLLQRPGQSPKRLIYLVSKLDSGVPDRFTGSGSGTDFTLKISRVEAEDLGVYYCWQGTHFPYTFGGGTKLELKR
Kd [3]: 9.4 pM | effect of inhibiting TFPI, FXa activity assay, Ab 10 nM [4]: 89%
